Reference: the RNAGym collection of RNA variant scans (doi:10.1073/pnas.2313332121)
This sample holds only a part of the variants without activity.

B1: TPR 5TU (parent)
chain: GGAUCUUCUCGAUCUAACAAAAAAGACAAAUCUGCCACAAAGCUUGAGAGCAUCUUCGGAUGCAGAGGCGGCAGCCUUCGGUGGCGCGAUAGCGCCAACGUUCUCAACUAUGACACGCAAAACGCGUGCUCCGUUGAAUGGAGUUUAUCAUG

Variants of: B1
Experiment: polymerase ribozyme fitness, log enrichment relative to wild type (log ratio); higher = more active; in vitro selection for triplet polymerase activity
Outline: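 Genotype fitness is the logarithm of its enrichment divided by wild-type enrichment, using inverse-variance-weighted averages of replicates. That logarithm is base 2. Enrichment was measured by Illumina sequencing of input and output libraries from one triplicate in vitro selection round, with frozen incubation at −7 °C, on PCR-built, transcribed mutant libraries of each subunit of a heterodimeric triplet polymerase ribozyme, retaining genotypes with ≥10 input reads and ≥1 read per output.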

Variant	polymerase ribozyme fitness (log ratio)
GGAUCUUCUCGAUCUAGCAAAAAAGACAAAUCUGCCACAAAGCUUGAGAGCAUCUUCCGAGGCAGAGGCGUCAGCCUUCGGUGGCCCGAUAGCGCCAACGUUCGCAACUAUGACACGCAAAACGCGUGCUCCGUUGAAUGGACUUUAUCAUG	≤ -4.2
GGAUCUUCUCGAUCUAGCAAAAAAGACAAAUCUGCCACAAAGCUUGAGAGCAUCUUCACAUGCAGAGGUGGCAGCCUUCGGUGGCGCGAUAGCGUCAACGUUCACAACUAUGACACGCAAAACGCGUGCUCCGUUGAAUGGAGUUUAUCAUG	-3.74
GGAUCUUCUCGAUCUAGCAAAAAAGACAAAUCUGCCACAAAGCUUGAGAGCAUCUUCGGAUGCAGAGGCGGCAGCCUUCGGUGGCGCGAUAGCGCCAACGUUCUCAACUAUGACACGCAAAACGCGUGCUCCGUUGAAUGGAUUUUAUCAUG	-2.24
GGAUCUUCUCGAUCUAGCAAAAAAGACAAAUCUGCCACAAAGCUUGAGAGCAUCUUCGAAUGCAGAGGCGGCAGCCUUCGGUGGUGCGAUACCGCCAACGUUAUCAACUAUGACACGCAAAUCGCGUGCUCCGUUGAAUGGAGUUUAUCAUG	≤ -4.2
GGAUCUUCUCGAUCUAGCAAAAAAGACAAAUCUGCCACAAAGCUUGAGAGCAUCUUCGGAUCCAGAGGCGGCAGCCUUCGAUGGCGCGAUAGCGCCAACGUUCUCAACUAUGACACGCAAAACGCGUGCUCCGUUGAAUGGAGUUUAUCAUG	-1.76
GGAUCUUCUCGAUCUAGCAAAAAAGACAAAUCUGCCACAAAGCUUGAGAGCAACUUCGGAUGCAGAGGCGGCAGCCUUAGGUGGCGCGAUAGCGCCAACGUUCUCAACUAUGACACGCAAAACGCGUGCUCCGUUGAAUGCAGUUUAUCAUG	≤ -4.2
GGAUCUUCUCGAUCUAGCAAAAAAGACAAAUCUGCCACAAAGCAUGAGAGCAUCUUCGGAUGCAGAGGCGGCAGCCUUCGGUGGCGCGAUGGCGCCAACGUUCUCAACUAUGACACGCAAAACGCGUGCUCCGUUGAAUGGAGUUUAUCAUG	≤ -4.2
GGAUCUUCUCGAUCUAGCAAAAAAGACAAAUCUGCCACAAAGCUUGAGAGCAUCUUCGGAUGCAGAGGCGGCAGCCUUCGGUUGCGCGAUAGCGCCAACGUUCUCAACUAUGACACGCAAAACGCGUGCUCCGAUGAAUGGAGUUUAUCAUG	-2.39
GGAUCUUCUCGAUCUAGCAAAAAAGACAAAUCUGCCACAAAGCUUGAGAGCAUCUUCGGAUGCAGAGGCGGCAGCCUUCGGUGGCUCGAUAGCGCCUACGUUCUCAACUAUGACACGCAAAACGCGUGCUCCGUUGAAUGGAGUUUAUCAUG	-2.08
GGAUCUUCUCGAUCUAGCAAAAAAGACAAAUCUGCCACAAAGCUUGAGAUCAUCUUCGGAUGCAGGGGCGGCAGCCUUCGGUGGCGCGAUACCGUCAACGUUCUCAACUAUGACACGCAAAACGCGUGCUCCGUUGAAUGAAGUUUAUCAUG	≤ -4.2
GGAUCUUCUCGAUCUAGCAAAAAAGACAAAUCUGCCACAAAGCUUGAGAGCAUCUUCGGAUGCAGAGGCGGCAGCCUUCGGUGCCGCGAUAGCGCCAACGUUCUCAACUAUGACACGCAAAACGCGUGCUCCGUUGAAUGGAGUUUAUCAUG	-1.85
GGAUCUUCUCGAUCUAGCAAAAAAGACAAAUCUGCCACAAAGCUUGAGACCAUCUUCGGAUGCAGAGGCGGCAGCCUUCGGUGGCGCGAUAGCGCCAACGUUCUCAACUAUGACACGCAAAACGCGUGCUCCGUUGGAUGGAGGUUAUCAUG	≤ -4.2
GGAUCUUCUCGAUCUAGCAAAAAAGACAAAUCUGCCACAAAGCUUGAGAGCAUCUUCGGAUGCAGAGGCGGCAGCCUUCGGUGACGCGAUAGAGCCAGCGUUCUCAACUAUGACACGCAAAACGCGUGGUCCGUUGAAUGGAGUUUAUCAUG	≤ -4.2
GGAUCUUCUCGAUCUAGCAAAAAAGACAAAUCGGCCACAAAGCUUGAGAGCAUCUUCGGAUGCAGAGGCGGCAGCCUUGGGUGACGCGAUAGCGCCAACGUUCUCAACUAUGACACGCAAAACGCGUGCUCCGGUGAAUGGAGUUUAUCAUG	≤ -4.2
GGAUCUUCUCGAUCUAGCAAAAAAGACAAAUCUGCCACAAAGCUUGAGAGCAUCUUCGGAUGCAGAGGCGGCAGCCUUCGGUGGCGCGAUAACGCCAACGUUCUCAACUAUGACACGCAGAGCGAGUGCUCCGUUGAAUGGAGUUUAUCAUG	≤ -4.2
GGAUCUUCUCGAUCUAGCAAAAAAGACAAAUCUGCCACAAAGCUUGAGAGCAUCUUCGGAUUCAGAGUCGGCAGCCUUCGGUGGCGCGAUAGCGCAAACGUUCUGAACUAUGACACGCAAAACGCGUGCUCCGGUGAAUGGAGUUUAUCAUG	≤ -4.2
GGAUCUUCUCGAUCUAGCAAAAAAGACAAAUCUGCCACAAAGCUUGAGAGCAUCUUCGGAUGCAGAGGCGGCAGCCUUCGGUGGCACGAUAGCGCCAACGUUCUCAACUAUGACACGCAAAACGCGUGCUCCGUUGAAUGGAGUUUAUCAUG	-0.889
GGAUCUUCUCGAUCUAGCAAAAAAGACAAAUCUGCCACAAAGCUUGAGAGCAACUUCGGAUGCAGAGGCGGCAGGCUUCGGUGGCGCGAUGGCGCCAACGUUCUCAACUAUGGCACGCAAAACGCGUGCUCCGUUGAAUGGAAUUUAUCAUG	≤ -4.2
GGAUCUUCUCGAUCUAGCAAAAAAGACAAAUCUGCCACAAAGCUUGAUAGCAUCUUCGGAUGCAGAGGCGGCAGCCUUCGGUGGCGUGUUAGCGCCAACGUUCUCAACUAUGACACGCCAAACGCGUGCUCCGUUGAAUGGAGUUUAUCAUG	-2.96
